Experimental data as given in the supplement of paper PMC10567573.

B1: HESX1 (parent)
chain: QKKDCVPLMKPHRPWADTCSSSGK
B2: CPN1 (parent)
chain: RGVRRTASTPTPDDKLFQKLAKVY

Variants of: B1
Assay: protein stability index of a GFP-peptide fusion (GPS, HEK-293T) (PSI 1-6); higher = more stable
Conditions: c terminus: a fixed tail appended
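Further: lentivirally expressed fusions sorted by FACS into six bins by GFP to DsRed ratio, PSI derived from sequencing read proportions per bin multiplied by bin number.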

Protein stability index of substitutions, site by site:
D17: K 3.91, V 2.91, I 2.57, A 3.48
P7: A 2.79, C 2.74
D4: G 3.05, C 2.38
Q1: M 3.03, T 3.4, Y 2.45, L 2.01
M9: E 4.04, T 3.77, R 3.13, S 2.93, I 3.23, F 2.85, K 3.08
K10: A 3.18, F 3.21
P14: S 3.1, W 2.96, D 3.21, A 2.52, H 3.95, F 3.1, E 4.12
S20: W 2.74, C 3.03, A 3.71, N 3.33
S22: D 2.61, K 3.69
G23: L 3.46, F 1.61, D 2.46, R 3.5, P 3.81, W 1.6, A 3.69
R13: D 4.11, Q 4.18, W 3.4, P 3.25
K2: F 3.46
A16: Q 4, G 3.57
H12: S 4.05, M 3.18, N 3.77
L8: Q 4.1, V 3.28, E 3.58, D 3.93
T18: W 2.94, A 3.41
S21: C 2.92
C19: H 3.77
K3: A 3.52, V 3.47, T 3.13, H 3.66, N 3.67
P11: Q 2.74, T 4.68, F 3.03, L 2.85, S 3.64, M 3.83
K24: C 3.33, G 3.62
C5: I 2.51, G 2.62, F 3.38, Q 2.49, R 4.16
W15: I 4.26, F 3.47, N 4.79

Variants of: B2
Assay: as above
Conditions: c terminus: a fixed tail appended

Protein stability index: each site, then its substitutions
L16: G 3.29, P 3.29, F 1.9, V 2.29, W 1.85, M 2.65, T 3.43, R 3.34, E 2.68, H 2.64, K 3.56, A 2.65, Q 3.31
D13: C 1.2, G 2.37, V 1.78, L 1.65, K 1.88, Y 2.24, R 1.63, E 1.24
F17: L 2.15, Q 3.21, K 3.5, D 3.32, E 3.95, H 2.63, C 2.96, T 3.67, V 2.58, A 3.19, S 2.94
Y24: S 2.72, E 3.49, V 2.7, Q 2.92, D 3.48, C 2.22, N 3.33, T 3.64, L 2.49, A 2.51
Q18: R 1.77, D 2.32, G 2.29, E 2.19, H 2.02, I 1.75, P 2.7, T 2.42, V 1.82, K 1.84, S 2.09, A 1.93, M 1.47
R5: M 2.51, Y 1.89, S 2.23, T 2.94, H 2.35, Q 2.23, N 2.3
V23: H 2.78, T 2.4, P 3.51, F 1.64, N 3.73, S 2.7, M 1.9, K 2.96, I 2.27, Y 1.9, G 3.09
A21: I 1.85, E 3.11, N 2.66, Y 2.27, D 2.78, K 1.76, L 1.58, G 3.23, S 2.15
G2: D 2.26, H 1.87, F 1.51, N 3.13, A 2.52, Y 1.64, S 3.13, P 2.19, I 1.76, C 2.22
P10: R 1.74, M 1.89, H 1.34, D 2.49, T 1.75, I 1.48, W 1.36, Y 1.79, F 2.19
A7: F 1.25, E 2.05, S 1.97, W 2.59, T 2.07, D 2.05, P 1.85, Q 2.37
T9: P 3, I 1.68, G 3.11, H 2.27, F 2.3, W 2.02, Y 1.52, V 1.97, C 2.57, L 1.27, Q 1.84, R 1.3, A 2.07
L20: F 1.82, C 2.56, T 3.52, P 3.58, Y 2.4, I 1.92, A 3.4, R 3.3, V 3.48, S 3.7, E 3.85, M 2.23
K19: D 2.67, Q 1.96, L 2.36, R 2.49, H 2.12, A 1.62, S 1.74, N 2.16
R4: C 3.17, L 1.92, K 1.51, I 2.56, G 2.57, E 2.16, W 2.02, D 3.69, N 1.95, M 2.26
S8: H 1.82, Y 3, G 1.1, N 2.1, A 2, L 1.76, Q 2.18, T 1.6, I 1.57, K 2.85, W 3.14, E 1.63, F 1.7
V3: T 2.89, W 2.66, L 2.24, G 2.12, E 2.24, C 2, Q 1.88, A 2.16, N 2.2, P 2.35, R 2.84
T11: V 1.67, E 2.1, R 1.82, I 1.71, D 2.26, C 1.83, Q 2.29, L 1.52, M 2.03, N 2.23, S 1.86, H 2.04
R1: C 1.4, L 2.88, H 2.58, V 2.34, F 1.92, K 1.89, T 1.49, I 1.42, M 1.93, W 1.02, P 2.27, Q 2.42
K15: T 1.7, I 1.76, S 2.02, Q 2.08, G 2, M 1.33, E 2.2, D 1.99, L 1.8, P 2.12, F 3.23, R 1.78
K22: P 2.37, Q 1.7, Y 1.97, F 1.96, D 1.95, R 2.07, V 2.14, M 2.04, W 2.19, T 1.96
P12: Y 2.94, R 1.89, K 2.32, A 2.06, G 2.4, E 3.13, F 2.38, M 2.01, T 1.81, L 1.44, S 3.04, W 2.48
T6: Q 2, I 1.67, F 2.07, G 1.74, V 2.56, C 1.52, W 2.02, E 2.12
D14: A 2.05, G 2.78, I 1.23, H 2.32, L 1.64, Y 1.48, T 2.38, M 2.45, Q 2.35, R 1.93, S 2.63, E 1.95
